Test results: paper PMC5969521, “Actin-related proteins regulate the RSC chromatin remodeler by weakening intramolecular interactions of the Sth1 ATPase” (Communications Biology, 2018)
Values belong to the molecule of their own block, whether it stands above or below them.

How the values were obtained:
[1] = biological target: T1, Rtt102;Arp7;Arp9;Sth1(301-1097) (budding yeast;budding yeast;budding …, UniProt P53330;Q12406;Q05123;P32597 1-157;1-477;1-467;301-1097, |||); test: EMSA; conditions: apparent Kd, Anisotropy: 20 mM HEPES pH 7.5, 50 mM NaCl, 2.5 mM MgCl2, 5% glycerol, 1 mM DTT, 0.1 mg/mL BSA, 1 mM AMPPNP or ADP, 50 nM DNA, 20 C, EMSA: 20 mM HEPES pH 7.5 …
Target sequence in this assay (P32597 301-1097, one chain of several): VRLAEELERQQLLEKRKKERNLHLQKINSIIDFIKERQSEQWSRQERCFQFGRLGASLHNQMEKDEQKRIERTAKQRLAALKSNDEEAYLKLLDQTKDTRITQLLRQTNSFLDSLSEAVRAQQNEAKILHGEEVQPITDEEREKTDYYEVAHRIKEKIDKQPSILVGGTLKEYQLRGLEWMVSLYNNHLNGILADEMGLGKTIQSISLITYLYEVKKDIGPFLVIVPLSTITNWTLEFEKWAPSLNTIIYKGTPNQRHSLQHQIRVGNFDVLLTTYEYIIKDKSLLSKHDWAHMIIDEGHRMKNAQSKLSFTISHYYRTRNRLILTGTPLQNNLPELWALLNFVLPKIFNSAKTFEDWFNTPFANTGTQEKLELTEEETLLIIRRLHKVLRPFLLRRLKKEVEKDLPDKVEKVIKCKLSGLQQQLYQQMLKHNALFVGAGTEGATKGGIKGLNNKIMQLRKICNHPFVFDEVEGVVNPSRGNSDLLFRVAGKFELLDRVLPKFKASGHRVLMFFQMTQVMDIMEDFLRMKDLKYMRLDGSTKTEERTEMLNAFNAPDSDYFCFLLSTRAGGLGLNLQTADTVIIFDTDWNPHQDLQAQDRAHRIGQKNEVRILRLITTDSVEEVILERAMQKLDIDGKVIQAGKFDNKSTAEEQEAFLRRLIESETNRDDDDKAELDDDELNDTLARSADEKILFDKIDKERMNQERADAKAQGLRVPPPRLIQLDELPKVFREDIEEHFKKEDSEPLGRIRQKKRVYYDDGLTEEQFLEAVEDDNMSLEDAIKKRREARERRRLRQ

Sth1(301-1097) [2] = biological target: T2, Sth1(301-1097) (budding yeast, UniProt P32597 301-1097); test: EMSA; conditions: apparent Kd, Anisotropy: 20 mM HEPES pH 7.5, 50 mM NaCl, 2.5 mM MgCl2, 5% glycerol, 1 mM DTT, 0.1 mg/mL BSA, 1 mM AMPPNP or ADP, 50 nM DNA, 20 C, EMSA: 20 mM HEPES pH 7.5 …
T2 sequence (P32597 301-1097): as the sequence (P32597 301-1097, one chain of several) above

Rtt102-Arp7/9 = biological target: T3, Rtt102-Arp7/9 (Saccharomyces cerevisiae, UniProt Q12406); test: X-ray crystallography ([…] Å); type: binding; conditions: pre-incubated with 1 mM ATP; ATP bound in nucleotide cleft of Arp7, not Arp9; no cation seen; not hydrolysed
T3 construct: heterotrimer reconstituted from Rtt102 and Arp7/9 (2:1 mix, gel filtration); Rtt102 157 aa; with Actin-like protein ARP9; Regulator of Ty1 transposition protein 102
T3 sequence (Q12406 1-477): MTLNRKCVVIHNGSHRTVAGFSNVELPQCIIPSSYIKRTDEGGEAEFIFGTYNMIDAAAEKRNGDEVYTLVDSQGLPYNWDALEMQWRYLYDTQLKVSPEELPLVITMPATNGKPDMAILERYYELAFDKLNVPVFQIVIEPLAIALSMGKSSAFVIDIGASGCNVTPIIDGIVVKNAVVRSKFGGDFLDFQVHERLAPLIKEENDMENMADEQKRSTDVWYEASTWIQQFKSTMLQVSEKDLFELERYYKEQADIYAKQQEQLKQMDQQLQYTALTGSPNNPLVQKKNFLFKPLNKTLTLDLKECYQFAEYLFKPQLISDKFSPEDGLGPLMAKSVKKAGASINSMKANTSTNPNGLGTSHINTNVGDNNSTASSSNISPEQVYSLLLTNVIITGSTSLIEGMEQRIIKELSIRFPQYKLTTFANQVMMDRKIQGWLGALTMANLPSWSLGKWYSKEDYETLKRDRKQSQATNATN
T3 sequence (Q05123 1-467 partner): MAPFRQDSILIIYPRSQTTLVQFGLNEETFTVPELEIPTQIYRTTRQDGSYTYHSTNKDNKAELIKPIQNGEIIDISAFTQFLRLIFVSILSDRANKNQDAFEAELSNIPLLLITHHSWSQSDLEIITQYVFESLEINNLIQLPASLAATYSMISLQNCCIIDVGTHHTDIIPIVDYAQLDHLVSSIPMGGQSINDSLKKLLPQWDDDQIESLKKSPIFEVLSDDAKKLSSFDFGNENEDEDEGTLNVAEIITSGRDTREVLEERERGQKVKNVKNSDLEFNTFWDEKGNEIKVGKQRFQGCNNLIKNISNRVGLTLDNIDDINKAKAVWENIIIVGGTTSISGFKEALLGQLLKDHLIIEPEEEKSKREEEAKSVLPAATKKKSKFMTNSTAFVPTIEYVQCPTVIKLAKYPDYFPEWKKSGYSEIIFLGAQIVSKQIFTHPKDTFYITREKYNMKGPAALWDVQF
T3 sequence (P53330 1-157 partner): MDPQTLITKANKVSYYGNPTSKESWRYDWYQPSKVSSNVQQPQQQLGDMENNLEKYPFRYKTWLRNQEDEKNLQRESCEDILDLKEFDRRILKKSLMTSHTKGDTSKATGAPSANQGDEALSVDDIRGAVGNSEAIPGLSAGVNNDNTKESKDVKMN

[3] = biological target: T4, Rtt102-Arp7/9-Sth1_301–1097 (Saccharomyces cerevisiae, UniProt P32597); test: phosphate release (MESG/purine nucleoside phosphorylase, […] nm); type: biochemical; conditions: 1 mM ATP, plasmid DNA, 2.5 mM MgCl2, pH 7.0, 22 °C; hydrolysis by the Sth1 subunit
T4 construct: gene STH1; quaternary complex; Sth1 residues 301-1097 (HSA, pHSA, ATPase domains), Ni-NTA purified; with Actin-related protein 7; Actin-like protein ARP9; Regulator of Ty1 transposition protein 102
T4 sequence (P32597 301-1097, one chain of several): as the sequence (P32597 301-1097, one chain of several) above

[4] = biological target: nucleosome (Xenopus laevis histone octamer on 601 nucleosomal DNA) (Xenopus laevis); test: native gel or EMSA; native gel shift, 1 mM ADP; nucleosomes held constant, Sth1 constructs up to 10 μM; 20 mM HEPES pH 7.5, 50 mM NaCl, 5% glycerol, 1 mM DTT, 0.1 mg/mL BSA, 1 mM MgCl2; 30 min room temperature, gel at 4 °C; apparent KD from a single-site hyperbolic fit
[5] = biological target: nucleosome (Xenopus laevis histone octamer on 601 nucleosomal DNA) (Xenopus laevis); test: native gel or EMSA; native gel shift, 1 mM AMPPNP; nucleosomes held constant, Sth1 constructs up to 10 μM; 20 mM HEPES pH 7.5, 50 mM NaCl, 5% glycerol, 1 mM DTT, 0.1 mg/mL BSA, 1 mM MgCl2; 30 min room temperature, gel at 4 °C; apparent KD from a single-site hyperbolic fit
[6] = biological target: Sth1(365-1097) P1swap (budding yeast; Rad54 segment from S. solfataricus) (UniProt P32597); test: fluorescence anisotropy; conditions: nucleotide state not visible in material; Anisotropy: 20 mM HEPES pH 7.5, 50 mM NaCl, 2.5 mM MgCl2, 5% glycerol, 1 mM DTT, 0.1 mg/mL BSA, 1 mM AMPPNP or ADP, 50 nM DNA, 20 C; EMSA: 20 mM HEPES pH 7.5 …
Sth1(365-1097) P1swap (budding yeast; Rad54 segment from S. solfataricus), sequence (P32597 whole entry, the tested form may be a part): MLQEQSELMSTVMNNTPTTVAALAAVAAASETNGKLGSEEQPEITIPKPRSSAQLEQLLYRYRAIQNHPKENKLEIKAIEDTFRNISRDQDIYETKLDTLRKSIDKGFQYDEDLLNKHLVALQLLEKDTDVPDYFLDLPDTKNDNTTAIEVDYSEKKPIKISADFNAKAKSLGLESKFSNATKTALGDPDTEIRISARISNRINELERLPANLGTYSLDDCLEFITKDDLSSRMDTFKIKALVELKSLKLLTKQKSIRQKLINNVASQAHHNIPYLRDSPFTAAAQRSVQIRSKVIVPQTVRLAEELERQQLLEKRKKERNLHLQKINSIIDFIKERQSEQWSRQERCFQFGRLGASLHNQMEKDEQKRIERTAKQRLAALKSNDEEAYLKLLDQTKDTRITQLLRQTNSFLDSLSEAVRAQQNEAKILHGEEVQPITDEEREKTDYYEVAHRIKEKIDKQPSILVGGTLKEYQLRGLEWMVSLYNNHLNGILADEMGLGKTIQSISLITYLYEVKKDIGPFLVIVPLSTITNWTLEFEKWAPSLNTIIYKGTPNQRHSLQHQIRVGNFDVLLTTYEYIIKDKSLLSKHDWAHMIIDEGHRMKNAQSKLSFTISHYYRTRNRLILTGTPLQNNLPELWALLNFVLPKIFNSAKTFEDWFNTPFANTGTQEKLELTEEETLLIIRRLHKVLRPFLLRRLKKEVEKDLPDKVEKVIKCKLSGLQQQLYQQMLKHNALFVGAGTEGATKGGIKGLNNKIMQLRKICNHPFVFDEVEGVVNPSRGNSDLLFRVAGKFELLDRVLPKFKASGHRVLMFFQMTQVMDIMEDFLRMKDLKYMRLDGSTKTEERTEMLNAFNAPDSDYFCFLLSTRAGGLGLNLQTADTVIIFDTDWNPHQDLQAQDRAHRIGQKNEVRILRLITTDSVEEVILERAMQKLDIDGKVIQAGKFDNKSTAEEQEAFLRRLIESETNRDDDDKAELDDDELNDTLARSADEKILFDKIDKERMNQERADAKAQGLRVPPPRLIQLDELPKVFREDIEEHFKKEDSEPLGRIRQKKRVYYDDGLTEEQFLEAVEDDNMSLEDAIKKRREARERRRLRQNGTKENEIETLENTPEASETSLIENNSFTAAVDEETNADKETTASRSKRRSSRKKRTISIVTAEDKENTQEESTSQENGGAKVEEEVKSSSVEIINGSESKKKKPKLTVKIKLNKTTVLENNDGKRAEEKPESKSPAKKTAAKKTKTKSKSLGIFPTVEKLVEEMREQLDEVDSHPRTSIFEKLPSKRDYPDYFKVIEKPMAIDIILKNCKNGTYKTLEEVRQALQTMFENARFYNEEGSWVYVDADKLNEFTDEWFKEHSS

[7] = biological target: Rtt102-Arp7/9-bound His-HSA–pHSA fragment (budding yeast) (UniProt P32597); test: pull-down; TEV cleavage and co-purification assay: purified Sth1 constructs at 6 μM (±Arp7/9 and Rtt102) cut with TEV protease overnight, His-tagged N-terminal fragment held on Ni-NTA resin; 20 mM HEPES pH 7.5, 500 mM NaCl, 5% glycerol, 25 mM imidazole, 1 mM MgCl2, 0.1 mM AMPPNP; eluted with 250 mM imidazole; SDS-PAGE, Coomassie
[8] = biological target: T1, Rtt102;Arp7;Arp9;Sth1(301-1097); test: fluorescence anisotropy; 1 mM AMPPNP; Anisotropy: 20 mM HEPES pH 7.5, 50 mM NaCl, 2.5 mM MgCl2, 5% glycerol, 1 mM DTT, 0.1 mg/mL BSA, 1 mM AMPPNP or ADP, 50 nM DNA, 20 C; EMSA: 20 mM HEPES pH 7.5, 50 mM NaCl, 1 mM MgCl2, 5% glycerol, 1 mM DTT, 0.1 mg/mL BSA, 1 mM ADP or AMPPNP, room temperature; conditions: protein: recombinant;recombinant;recombinant;recombinant; copies: 1;1;1;1; label: 5'-fluorescein; strands 21 and 22 nt: 21 bp with 1 nt 5' overhang (T) on strand 2
Target sequence in this assay (P32597 301-1097, chain 4 of 4, one chain of several): as the sequence (P32597 301-1097, one chain of several) above

Arp7;Arp9;Sth1(301-1097) = Arp7;Arp9;Sth1(301-1097) (budding yeast;budding yeast;budding …, UniProt Q12406;Q05123;P32597 1-477;1-467;301-1097, ||); test: as above; conditions: protein: recombinant;recombinant;recombinant; copies: 1;1;1; label: 5'-fluorescein; strands 21 and 22 nt: 21 bp with 1 nt 5' overhang (T) on strand 2
Arp7;Arp9;Sth1(301-1097), sequence (P32597 301-1097, chain 3 of 3, one chain of several): as the sequence (P32597 301-1097, one chain of several) above

Sth1(301-1097) [9] = biological target: T2, Sth1(301-1097); test: as above; conditions: protein: recombinant; label: 5'-fluorescein; strands 21 and 22 nt: 21 bp with 1 nt 5' overhang (T) on strand 2
Sth1(365-1097) = Sth1(365-1097) (budding yeast, UniProt P32597 365-1097); test: fluorescence anisotropy; nucleotide state not visible in material; Anisotropy: 20 mM HEPES pH 7.5, 50 mM NaCl, 2.5 mM MgCl2, 5% glycerol, 1 mM DTT, 0.1 mg/mL BSA, 1 mM AMPPNP or ADP, 50 nM DNA, 20 C; EMSA: 20 mM HEPES pH 7.5, 50 mM NaCl, 1 mM MgCl2, 5% glycerol, 1 mM DTT, 0.1 mg/mL BSA, 1 mM ADP or AMPPNP, room temperature; conditions: protein: recombinant; label: 5'-fluorescein; strands 21 and 22 nt: 21 bp with 1 nt 5' overhang (T) on strand 2
Sth1(365-1097), sequence (P32597 365-1097): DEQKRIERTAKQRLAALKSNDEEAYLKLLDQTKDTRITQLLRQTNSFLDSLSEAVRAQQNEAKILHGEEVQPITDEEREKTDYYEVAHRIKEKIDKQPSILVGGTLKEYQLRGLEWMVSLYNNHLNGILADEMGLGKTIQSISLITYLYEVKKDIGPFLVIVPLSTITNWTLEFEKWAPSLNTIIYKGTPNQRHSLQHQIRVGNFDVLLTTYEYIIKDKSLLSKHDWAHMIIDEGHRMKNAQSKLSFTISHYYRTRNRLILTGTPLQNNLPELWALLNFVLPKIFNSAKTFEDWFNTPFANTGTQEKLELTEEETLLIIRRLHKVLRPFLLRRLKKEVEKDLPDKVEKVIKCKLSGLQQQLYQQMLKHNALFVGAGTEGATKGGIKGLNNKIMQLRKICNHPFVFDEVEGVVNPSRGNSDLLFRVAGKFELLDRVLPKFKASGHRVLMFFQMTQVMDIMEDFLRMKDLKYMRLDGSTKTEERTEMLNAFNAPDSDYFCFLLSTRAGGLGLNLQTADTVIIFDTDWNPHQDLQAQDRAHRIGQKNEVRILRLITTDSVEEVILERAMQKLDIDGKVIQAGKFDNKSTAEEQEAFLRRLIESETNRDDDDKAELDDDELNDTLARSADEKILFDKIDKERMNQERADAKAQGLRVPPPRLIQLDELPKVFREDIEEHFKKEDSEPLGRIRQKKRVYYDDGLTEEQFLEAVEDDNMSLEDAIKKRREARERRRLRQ

Molecule: 601 nucleosome (Xenopus laevis core histone octamer)
Kd ([1]; 1 mM ADP): 510 nM | Kd ([1]; 1 mM AMPPNP): 460 nM | Kd (Sth1(301-1097) [2]; 1 mM ADP): 670 nM | Kd (Sth1(301-1097) [2]; 1 mM AMPPNP): 670 nM

Molecule: Nc1ncnc2c1ncn2[C@@H]1O[C@H](COP(=O)(O)OP(=O)(O)OP(=O)(O)O)[C@@H](O)[C@H]1O [ATP]
X-ray crystallography (3.25 Å) (Rtt102-Arp7/9): showed the presence of ATP in the nucleotide-binding cleft of Arp7 but not Arp9 | phosphate release (MESG/purine nucleoside phosphorylase, 360 nm) [3]: displays strong DNA-dependent ATPase activity catalyzed by subunit Sth1

Kd [4]: 510 nM | Kd [5]: 460 nM
Molecule: Rtt102-Arp7/9-Sth1_(301–1097) quaternary complex (from UniProt P32597 301-1097; Q12406 1-477; Q05123 1-467; P53330 1-157)

Kd [4]: 670 nM | Kd [5]: 670 nM
Molecule: Sth1_(301–1097) (from UniProt P32597 301-1097) (domain or fragment)

Molecule: TCCATGTCCATGGATACGTGG / TCCACGTATCCATGGACATGGA [fluorescein DNA duplex]
Kd [6]: 520 nM

percent of the ATPase lost after passage through the Ni-NTA column [7]: 45%
Molecule: untagged ATPase fragment of TEV-cleaved Sth1_(301–1097) or Sth1_(365–1097) (from UniProt P32597 432-1097) (domain or fragment)

B1: fluorescein DNA duplex (dsDNA)
DNA 1: TCCATGTCCATGGATACGTGG
DNA 2: TCCACGTATCCATGGACATGGA
Kd [8]: 4200 nM | Kd (Arp7;Arp9;Sth1(301-1097)): 3000 nM | Kd (Sth1(301-1097) [9]): 280 nM | Kd (Sth1(365-1097)): 700 ± 10 nM
